The values that follow are results of earlier work, collected in article PMC4465451.

One may read the pKa as the negative logarithm of the acid dissociation constant.

This data set deals with His5 (UniProt position 30, DRVYIHPFHLV). The data set can be described thus: mass spectrometry. The conditions noted are these: Free peptide, taken as fully solvent accessible.

For Angiotensin III, the pKa was 6.50.
